Results taken from the supplement of paper PMC9170038.

System: MS2 coat protein
Assay: apparent KD of MS2 coat protein; designed switch direction (-1 OFF switch, 1 ON switch): 1; higher = weaker reporter binding
Procedure, shortened: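 Stalled E. coli RNA polymerase transcribed designed RNA switches on Illumina chips, which were then titrated with SNAP-549-labelled MS2 coat protein, doubling from 0.7 or 1.5 nM to 3 µM. Steps lasted from 0.8–1.5 h at the lowest concentration to 10–20 min at the highest. The apparent KD is each design's median over clusters of curve-fitted normalised fluorescence.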

[1] = Eterna round: R95, input ligand: FMN 200 uM
[2] = Eterna round: R95, input ligand: microRNA oligo, concentration not stated
[3] = Eterna round: R95, input ligand: none
[4] = input ligand: microRNA oligo, concentration not stated

UGUCCAGCCUGAGCUGGACAAAAGCAUGUACAUGAGGAUCACCCAUGUUCAUGUACAAGCUUUUUGCUCGUCUUAAU [salish99_208a_r3_031] (puzzle: Sensor for hsa-mir-208a)
apparent KD of MS2 coat protein [1]: 497 nM | apparent KD of MS2 coat protein [2]: 14.1 nM | apparent KD of MS2 coat protein [3]: 445 nM

AGCUAGUACCGAGGAUAUACAUACAUGAGGAUCACCCAUGUAUACAUGAAUUAUUGAGACUACAUGUAGAAGGCGGUACUAGCA [JL SSNG2 1.20] (Eterna round: R96, puzzle: Same State NG 2)
apparent KD of MS2 coat protein (input ligand: FMN 200 uM): 16.6 nM | apparent KD of MS2 coat protein [4]: 35.7 nM | apparent KD of MS2 coat protein (input ligand: none): 64.9 nM

GGUAGGUUACUACCAAACAUGAGGAUCACCCAUGUAAGUGGGAAGGAUAUGGUACCUAUUUGGUACCAGAAGGUCUAAUUAAUU [Fiskers NG3ss - 2] (Eterna round: R96, puzzle: Same State NG 3)
apparent KD of MS2 coat protein (input ligand: FMN 200 uM): 444 nM | apparent KD of MS2 coat protein [4]: 59.9 nM | apparent KD of MS2 coat protein (input ligand: none): 1230 nM

AUACAUGAGGAUCACCCAUGUAAUUAAUUAAUUAAUAAGAUCUAGGAUAUCAGCUCGAAUAGAGCUGAGAAGGAGAUCACAUGU [SSNG3/21-B1] (Eterna round: R96, puzzle: Same State NG 3)
apparent KD of MS2 coat protein [4]: 19.4 nM

ACCCAAGGUAUAUGGGAACAAGCUUUUUAACAUGAGGAUCACCCAUGUACUCGUCUUAUAAGCAGUCGAAAGACUGC [Sensor 100 - 6] (puzzle: Sensor for hsa-mir-208a)
apparent KD of MS2 coat protein [1]: 619 nM | apparent KD of MS2 coat protein [2]: 16.1 nM | apparent KD of MS2 coat protein [3]: 831 nM

GGAAUAUGAUGUUACAUGAGGAUCACCCAUGUAGUAAUAACUAAGGAUAUCUGUUAAGAUAACUAAGAGAAGGUAGGAUCAUAA [AK SSNG3-V2-8.4] (Eterna round: R96, puzzle: Same State NG 3)
apparent KD of MS2 coat protein (input ligand: FMN 200 uM): 22.2 nM | apparent KD of MS2 coat protein [4]: 20.5 nM | apparent KD of MS2 coat protein (input ligand: none): 22.1 nM

GCGAUAUGAUGUUACAUGAGGAUCACCCAUGUAGCGAUAGCUAAGGAUAUUGGAAAGGGAGGAGACGAGAAGGUAGGAUCACGC [AK SSNG3-V2-23.1] (Eterna round: R96, puzzle: Same State NG 3)
apparent KD of MS2 coat protein (input ligand: FMN 200 uM): 44.9 nM | apparent KD of MS2 coat protein [4]: 15.7 nM | apparent KD of MS2 coat protein (input ligand: none): 36.1 nM

AAGUUACUAUCUCAGGAUAUCAUGUCAAAGACAUGAGGAUCACCCAUGUACCAGGAAACUGGUUAUGAGAAGGGAGAUAGUAACA [Mat - Same State 2 - Mod - D50] (puzzle: Same State 2)
apparent KD of MS2 coat protein [1]: 143 nM | apparent KD of MS2 coat protein [2]: 134 nM | apparent KD of MS2 coat protein [3]: 1400 nM

AGCCGAAGCGCAGGAUAUACAUGGAUACAUGAGGAUCACCCAUGUAGCAACACGUGGUAGUGAUUGUAGAAGGGUGCUCGGCGC [Omei SS(NG)2 Cv17] (Eterna round: R96, puzzle: Same State NG 2)
apparent KD of MS2 coat protein (input ligand: FMN 200 uM): 27.4 nM | apparent KD of MS2 coat protein [4]: 35.5 nM | apparent KD of MS2 coat protein (input ligand: none): 54.6 nM

UUUUUUAUCGUAGGAUAUAGGUUGAAUAAUAGACUAGAAGGACGUGACAUGAGGAUCACCCAUGUUUUUUAAGUGUCGAAGUGU [JR_SSNG1_Sub039] (Eterna round: R96, puzzle: Same State NG 1)
apparent KD of MS2 coat protein [4]: 19.6 nM

AUUUAACAAGCUUUUUGCUCGUCUUAUAAACAUGAGGAUCACCCAUGUAAUAGCGUGAGAGUAAAUAUAUAAAUAAU [JMF 85] (puzzle: Sensor for hsa-mir-208a)
apparent KD of MS2 coat protein [1]: 13.8 nM | apparent KD of MS2 coat protein [2]: 42.2 nM | apparent KD of MS2 coat protein [3]: 11.9 nM

AUCCUACAUGAGGAUCACCCAUGUGACGCCUCAAUAGGAUAUCGGGCCCAAAAUCGGGCACGAGAAGGAUUGAAGC [Aveso] (puzzle: Same State 1)
apparent KD of MS2 coat protein [1]: 85.2 nM | apparent KD of MS2 coat protein [2]: 172 nM | apparent KD of MS2 coat protein [3]: 163 nM

UGCAUACAUGAGGAUCACCCAUGUCAACGUAGUCGAGGAUAUGGGCAGCCGUGAGGCGAACCAGAAGGCGAAUUGU [JL-ss1-3.03 ViennaUCT mod] (puzzle: Same State 1)
apparent KD of MS2 coat protein [1]: 23.1 nM | apparent KD of MS2 coat protein [2]: 52.7 nM | apparent KD of MS2 coat protein [3]: 115 nM

GCGAGCGUACUUGCAACAUGAGGAUCACCCAUGUUAACUGGACAGGAUAUGGUACCGUUUCGGUACCAGAAGGGUUUUACAUGU [JL SSNG3 3.65] (Eterna round: R96, puzzle: Same State NG 3)
apparent KD of MS2 coat protein (input ligand: FMN 200 uM): 35.1 nM | apparent KD of MS2 coat protein [4]: 29.1 nM | apparent KD of MS2 coat protein (input ligand: none): 35.6 nM

GUAAUAAAGGAAGGAUAUGGGUAAACGGGAAUCCCAGAAGGUCCACAUGAGGAUCACCCAUGUGGUCCCGAAACCAAGGGACCG [Cetibiza] (Eterna round: R96, puzzle: Same State NG 1)
apparent KD of MS2 coat protein (input ligand: FMN 200 uM): 53.1 nM | apparent KD of MS2 coat protein [4]: 19.3 nM | apparent KD of MS2 coat protein (input ligand: none): 48.7 nM

AAUUAAUUAAUUAAGUACAUGAGGAUCACCCAUGUAAGUGAUCAGGAUAUCAGCUCGAUUAGAGCUGAGAAGGGAUCCAUGUAC [SSNG3/15-A2] (Eterna round: R96, puzzle: Same State NG 3)
apparent KD of MS2 coat protein [4]: 400 nM

AAAAAACAUGAGGAUCACCCAUGUCAAAAGACUCGAGGAUAUGGGCAAAUAAAAUAAGAACCAGAAGGCGAGAAAA [salish99_ss1_r3_101] (puzzle: Same State 1)
apparent KD of MS2 coat protein [1]: 20 nM | apparent KD of MS2 coat protein [2]: 36.3 nM | apparent KD of MS2 coat protein [3]: 31.7 nM

CACCAGAGGAGAGGAUAUGGUCGAACCCACAGUCCAGAAGGCUCACAGGAACCUAGAGACAUGAGGAUCACCCAUGUGGCGACC [Eternabot solution 7] (Eterna round: R96, puzzle: Same State NG 1)
apparent KD of MS2 coat protein (input ligand: FMN 200 uM): 144 nM | apparent KD of MS2 coat protein [4]: 105 nM | apparent KD of MS2 coat protein (input ligand: none): 165 nM

GUUACAUGAGGAUCACCCAUGUAUGUGUGGGAGUAAGUGUCUUAGGAUAUCUGUUAUUUAAUUUCAGAGAAGGAAGAUUGUUGU [JMF's solution 48] (Eterna round: R96, puzzle: Same State NG 3)
apparent KD of MS2 coat protein (input ligand: FMN 200 uM): 125 nM | apparent KD of MS2 coat protein [4]: 91.2 nM | apparent KD of MS2 coat protein (input ligand: none): 105 nM

AAAAUCGCGAUAGGAUAUGGGAAAGGAAGUGUACCAGAAGGAUCAGCGCCGACUGGACAUGAGGAUCACCCAUGUCGAGUCUUA [PowerStrip SSNG 1.2] (Eterna round: R96, puzzle: Same State NG 1)
apparent KD of MS2 coat protein (input ligand: FMN 200 uM): 42.2 nM | apparent KD of MS2 coat protein [4]: 26.6 nM | apparent KD of MS2 coat protein (input ligand: none): 80.5 nM

GGAGCCGGCACCGAGGAUAUUCAUAUUAAAACAUGAGGAUCACCCAUGUGGGCCAGAAGGCCUUGGGAGAAGGCGGAUCGGCUCG [Xeonanis - 1] (puzzle: Same State 2)
apparent KD of MS2 coat protein [1]: 15.6 nM | apparent KD of MS2 coat protein [2]: 216 nM | apparent KD of MS2 coat protein [3]: 425 nM

GCAUCACAUGAGGAUCACCCAUGUCUUCGGAGUCGAGGAUAUGGUCACUGUAAACAGUGGCCAGAAGGCGAGGUGC [SS1 - Son of Teenbexe v4] (puzzle: Same State 1)
apparent KD of MS2 coat protein [2]: 53.4 nM

GUAGCAUACCGAGGAUAUUCAACAUGAGGAUCACCCAUGUGUUUAUUAUAGGCCAAAAGGCCUUGGGAGAAGGCGGAAUGCUAC [Xeonanis - 20 Mod15] (Eterna round: R96, puzzle: Same State NG 2)
apparent KD of MS2 coat protein (input ligand: FMN 200 uM): 9.4 nM | apparent KD of MS2 coat protein [4]: 8.4 nM | apparent KD of MS2 coat protein (input ligand: none): 15.7 nM

GGAGGACAUGAGGAUCACCCAUGUAAAUGGGCGCUAGGAUAUGCGAGAGGGUGGAGAGGAGCAGAAGGAGUGGAUA [JR_SS1_Sub039] (puzzle: Same State 1)
apparent KD of MS2 coat protein [1]: 105 nM | apparent KD of MS2 coat protein [2]: 180 nM | apparent KD of MS2 coat protein [3]: 207 nM
